Measured values as given in EP3228631A2 (TLA Targeted Immunotherapies AB, dated 2017).

What was measured:
hCXCR1 (human) = hCXCR1 (human) (UniProt P25024); assay: cell-based or functional assay
CCR5 (human) [1] = molecular target: CCR5 (human) (UniProt P51681); assay: cell-based or functional assay
CCR3 (human) [2] = molecular target: CCR3 (human) (UniProt P51677); assay: blood passed through the biotinylated RANTES coupled matrix column; flow cytometry for CCR1, 3 or 5-expressing cells; one healthy donor
CCR5 (human) [3] = molecular target: CCR5 (human) (UniProt P51681); assay: as above
CCR1 (human) = molecular target: T1, CCR1 (human) (UniProt P32246); assay: as above
T1 sequence (looked up): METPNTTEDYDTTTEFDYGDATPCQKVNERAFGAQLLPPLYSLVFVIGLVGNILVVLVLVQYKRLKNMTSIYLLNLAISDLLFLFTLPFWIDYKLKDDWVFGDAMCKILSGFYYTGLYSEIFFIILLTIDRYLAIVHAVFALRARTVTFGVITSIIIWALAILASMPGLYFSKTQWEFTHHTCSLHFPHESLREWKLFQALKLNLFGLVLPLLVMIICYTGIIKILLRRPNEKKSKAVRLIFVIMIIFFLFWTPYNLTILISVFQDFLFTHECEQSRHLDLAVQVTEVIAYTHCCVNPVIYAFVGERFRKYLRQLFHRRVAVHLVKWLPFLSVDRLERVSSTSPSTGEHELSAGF

CCR3 (human) [4] = molecular target: CCR3 (human) (UniProt P51677); assay: blood passed through the eotaxin coupled matrix (MACS beads, magnetic separator); flow cytometry before and after; one healthy donor
CCR7 = molecular target: T2, CCR7 (human, UniProt P32248 25-378); assay: cell-based or functional assay
T2 sequence (looked up): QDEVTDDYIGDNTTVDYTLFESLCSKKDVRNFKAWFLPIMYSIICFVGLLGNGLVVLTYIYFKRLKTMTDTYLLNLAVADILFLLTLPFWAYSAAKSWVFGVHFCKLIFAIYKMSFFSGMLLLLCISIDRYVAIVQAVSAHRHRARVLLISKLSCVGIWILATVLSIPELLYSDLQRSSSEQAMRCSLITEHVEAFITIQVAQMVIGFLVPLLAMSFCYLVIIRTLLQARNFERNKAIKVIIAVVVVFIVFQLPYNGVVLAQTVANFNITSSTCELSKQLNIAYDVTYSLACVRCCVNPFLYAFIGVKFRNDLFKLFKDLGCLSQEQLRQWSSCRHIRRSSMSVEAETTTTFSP

CCR3 (human) [5] = molecular target: CCR3 (human) (UniProt P51677); assay: cell-based or functional assay
hCCR2b = molecular target: T3, hCCR2b (human, UniProt P41597 1-374); assay: cell-based or functional assay
T3 chain: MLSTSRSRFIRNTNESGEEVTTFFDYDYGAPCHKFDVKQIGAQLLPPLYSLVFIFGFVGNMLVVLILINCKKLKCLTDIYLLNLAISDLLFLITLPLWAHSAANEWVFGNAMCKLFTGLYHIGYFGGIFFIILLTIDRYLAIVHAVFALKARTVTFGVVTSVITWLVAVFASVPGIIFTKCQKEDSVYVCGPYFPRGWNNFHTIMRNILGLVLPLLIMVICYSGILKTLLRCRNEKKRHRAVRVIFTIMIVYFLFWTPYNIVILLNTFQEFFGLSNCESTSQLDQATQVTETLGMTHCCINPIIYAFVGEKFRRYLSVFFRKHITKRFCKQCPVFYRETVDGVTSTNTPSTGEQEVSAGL

Sequence of CCR3 (human) (P51677 whole entry): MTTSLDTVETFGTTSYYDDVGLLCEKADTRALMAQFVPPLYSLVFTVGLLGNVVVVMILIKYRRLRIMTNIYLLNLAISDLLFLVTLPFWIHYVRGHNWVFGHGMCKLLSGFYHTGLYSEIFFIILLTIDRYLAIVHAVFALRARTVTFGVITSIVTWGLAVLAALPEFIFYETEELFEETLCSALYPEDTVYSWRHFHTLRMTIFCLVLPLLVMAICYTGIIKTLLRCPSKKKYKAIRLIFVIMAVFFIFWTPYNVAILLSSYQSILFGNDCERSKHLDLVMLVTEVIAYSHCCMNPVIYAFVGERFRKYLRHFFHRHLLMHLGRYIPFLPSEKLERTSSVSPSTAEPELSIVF
Sequence of hCXCR1 (human) (P25024 whole entry): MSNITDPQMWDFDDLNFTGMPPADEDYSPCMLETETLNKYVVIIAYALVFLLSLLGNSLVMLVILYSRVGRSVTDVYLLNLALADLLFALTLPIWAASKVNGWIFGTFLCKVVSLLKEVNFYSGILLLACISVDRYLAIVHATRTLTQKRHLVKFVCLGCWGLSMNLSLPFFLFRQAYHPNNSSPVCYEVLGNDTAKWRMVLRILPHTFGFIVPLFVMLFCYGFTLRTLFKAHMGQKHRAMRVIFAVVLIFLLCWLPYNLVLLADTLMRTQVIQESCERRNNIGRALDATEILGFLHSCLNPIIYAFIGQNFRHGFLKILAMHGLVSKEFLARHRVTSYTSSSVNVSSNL
Sequence of CCR5 (human) (P51681 whole entry): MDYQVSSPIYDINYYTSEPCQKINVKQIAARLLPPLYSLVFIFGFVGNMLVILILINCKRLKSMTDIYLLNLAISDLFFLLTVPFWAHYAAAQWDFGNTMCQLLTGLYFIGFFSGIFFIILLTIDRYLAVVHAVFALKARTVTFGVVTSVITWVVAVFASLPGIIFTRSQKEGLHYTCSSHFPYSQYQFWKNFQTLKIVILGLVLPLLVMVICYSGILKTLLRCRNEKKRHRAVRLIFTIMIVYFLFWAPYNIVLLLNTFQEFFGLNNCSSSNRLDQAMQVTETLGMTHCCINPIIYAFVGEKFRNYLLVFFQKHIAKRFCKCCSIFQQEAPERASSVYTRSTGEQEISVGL

**Q.** Which EC50, agonist activity, Aequorin assay (hCXCR1 (human)) does the source give for “biotinIL-8 (6-78) (IL-8 (6-78) derivatised at the ε-amino side chain functionality of Lys(78) with PEG-Biotin) (from UniProt P10145 28-99) (ligand)” here?
**A.** Its EC50, agonist activity, Aequorin assay is 6.1 nM.

**Q.** How did the EC50, agonist activity, Aequorin assay (CCR5 (human) [1]) turn out when “biotinRANTES (RANTES derivatised at the ε-amino side chain functionality of Lys(67) with Biotin) (from UniProt P13501 24-91) (ligand)” was run?
**A.** The EC50, agonist activity, Aequorin assay was 0.5 nM.

**Q.** What about the reduction of chemokine receptor-expressing cells by the column (CCR3 (human) [2]) of the same molecule?
**A.** Its reduction of chemokine receptor-expressing cells by the column is 20%.

**Q.** And the reduction of chemokine receptor-expressing cells by the column (CCR5 (human) [3])?
**A.** Its reduction of chemokine receptor-expressing cells by the column is 20%.

**Q.** And the reduction of chemokine receptor-expressing cells by the column (CCR1 (human))?
**A.** Its reduction of chemokine receptor-expressing cells by the column is 20%.

**Q.** “biotinylated eotaxin (from UniProt P51671 24-97) (ligand)” was tested. Which reduction of CCR3-expressing cells by the column (CCR3 (human) [4]) did it give?
**A.** Its reduction of CCR3-expressing cells by the column is 25%.

**Q.** With “recombinant native IL-8 (from UniProt P10145 28-99) (ligand)” as the molecule, how does the EC50, Aequorin assay (hCXCR1 (human)) read?
**A.** Its EC50, Aequorin assay is 4.2 nM.

**Q.** For “recombinant native MIP-3β (from UniProt Q99731 22-98) (ligand)”, which EC50, Aequorin assay (CCR7) is on record?
**A.** The EC50, Aequorin assay was 1.6 nM.

**Q.** For “recombinant native eotaxin (from UniProt P51671 24-97) (ligand)”, which EC50, agonist, Aequorin assay (CCR3 (human) [5]) is on record?
**A.** Its EC50, agonist, Aequorin assay is 10.7 nM.

B1: recombinant native MCP-2 (ligand, human, UniProt P80075 24-99, looked up)
chain: QPDSVSIPITCCFNVINRKIPIQRLESYTRITNIQCPKEAVIFKTKRGKEVCADPKERWVRDSMKHLDQIFQNLKP
**Q.** With B1 as the molecule, how does the “EC50, partial agonist, Aequorin assay” value (hCCR2b) read?
**A.** Its value is 23.5 nM.

B2: biotinMIP-3β (MIP-3β derivatised at the ε-amino side chain functionality of Lys(78) with Biotin) (ligand)
chain: GTNDAEDCCLSVTQKPIPGYIVRNFHYLLIKDGCRVPAVVFTTLRGRQLCAPPDQPWVERIIQRLQRTSAKMKRRSSX
modifications: X78 = K(Biotin) (additional C-terminal lysine, biotinylated); C-terminal amide (Rink Amide resin)
**Q.** Which “EC50, agonist activity, Aequorin assay” value (CCR7) does the source give for B2 here?
**A.** The value was 11 nM.
